Experimental data published in US7531516B2, “Peptidic compounds selectively binding to P-selectin” (Astellas Pharma Europe B.V., priority 2001, dated 2009).
Positions of bridges follow the written chain, without caps; N, C: chain ends. Residues, ends and D or L forms follow the SMILES beside them. No end group written: not given here. *: point of attachment. Biotin = O=C1N[C@H]2[C@H](CS[C@H]2CCCCC(=O)*)N1; Ahx = NCCCCCC(=O)O

T1: human p-selectin (Homo sapiens, UniProt P16109)
T1 sequence (P16109 42-830): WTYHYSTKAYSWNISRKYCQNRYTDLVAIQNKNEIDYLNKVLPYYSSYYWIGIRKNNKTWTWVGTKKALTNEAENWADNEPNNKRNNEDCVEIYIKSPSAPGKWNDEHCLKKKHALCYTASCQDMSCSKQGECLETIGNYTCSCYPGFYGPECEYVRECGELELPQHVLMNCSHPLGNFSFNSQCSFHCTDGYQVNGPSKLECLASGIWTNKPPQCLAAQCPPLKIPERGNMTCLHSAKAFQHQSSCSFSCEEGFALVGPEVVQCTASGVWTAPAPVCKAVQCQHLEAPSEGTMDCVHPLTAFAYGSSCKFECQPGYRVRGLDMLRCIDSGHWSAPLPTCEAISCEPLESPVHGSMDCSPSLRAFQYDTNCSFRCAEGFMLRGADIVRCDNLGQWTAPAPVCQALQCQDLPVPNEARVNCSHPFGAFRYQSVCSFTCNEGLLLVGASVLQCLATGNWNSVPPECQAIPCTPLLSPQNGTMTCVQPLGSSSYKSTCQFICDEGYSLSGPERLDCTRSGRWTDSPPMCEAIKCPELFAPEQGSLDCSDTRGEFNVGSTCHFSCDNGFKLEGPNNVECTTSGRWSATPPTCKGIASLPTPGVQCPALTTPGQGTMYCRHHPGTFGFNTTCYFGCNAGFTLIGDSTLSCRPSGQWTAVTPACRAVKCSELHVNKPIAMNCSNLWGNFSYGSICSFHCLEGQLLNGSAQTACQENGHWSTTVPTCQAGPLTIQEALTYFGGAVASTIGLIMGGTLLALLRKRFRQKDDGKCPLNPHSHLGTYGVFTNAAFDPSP

T2: chimeric human p-selectin (human, UniProt P16109 42-321)
T2 construct: also called human P-selectin-IgG
T2 sequence (looked up): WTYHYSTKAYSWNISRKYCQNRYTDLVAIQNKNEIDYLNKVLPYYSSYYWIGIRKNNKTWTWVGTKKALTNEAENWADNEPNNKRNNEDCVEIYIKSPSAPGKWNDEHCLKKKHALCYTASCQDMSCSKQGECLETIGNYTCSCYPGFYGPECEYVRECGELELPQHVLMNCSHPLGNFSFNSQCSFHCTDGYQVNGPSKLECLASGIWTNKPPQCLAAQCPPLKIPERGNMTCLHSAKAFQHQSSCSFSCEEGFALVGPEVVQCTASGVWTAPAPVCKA


biological target: T1, human p-selectin; test: Competition ELISA: displacement of TM11-strepPO complex from coated chimeric human P-selectin; format: binding; settings: competition with 2.5 nM TM11-strepPO, 1 hour at 4° C.; linear compounds in the presence of DTT; read-out: Affinity (affinity constant)
Protocol: The affinity of the compounds to P-selectin was investigated by using an adapted ELISA method. Streptavidin-horseradishperoxidase (strepPO) was incubated with TM11-biotin in a 1 to 4 molar ratio for 2 hours at RT, hereby forming a tetrameric peptide strepPO-complex. For competition studies, microtiter wells were coated with chimeric human p-selectin as described for the isolation of p-selectin binding phage. Wells were then incubated with 2.5 nM TM11-strepPO complex in assay buffer for 1 hour at 4° C., in the presence of titered amounts of peptides to compete for binding to human p-selectin. Linear compounds were tested in the presence of DTT to prevent aggregate formation. After washing 6 times with assay buffer, the wells were incubated with 100 μl TMB/H2O2 for 15 min at RT. The reaction was stopped with 1 M H2SO4 and the absorbance read at 450 nm. From the results, the affinity constants were calculated: […]

Row | IC50 [µM] | Molecule
1 | 12 | CC(C)[C@H](NC(=O)[C@H](CC(=O)O)NC(=O)[C@@H](NC(=O)[C@H](Cc1c[nH]c2ccccc12)NC(=O)[C@H](CCC(=O)O)NC(=O)[C@@H](NC(=O)[C@H](CC(=O)O)NC(=O)CCCCCNC(=O)CCCC[C@@H]1SC[C@@H]2NC(=O)N[C@@H]21)C(C)C)C(C)C)C(=O)N[C@@H](CO)C(=O)O [Biotin-A19] ({Biotin-Ahx}-DVEWVDVS-OH)
2 | 2 | CC(C)C[C@@H]1NC(=O)[C@H](CO)NC(=O)[C@H](CO)NC(=O)[C@H](C(C)C)NC(=O)[C@H](CC(=O)O)NC(=O)[C@H](C(C)C)NC(=O)[C@H](Cc2c[nH]c3ccccc23)NC(=O)[C@H](CCC(=O)O)NC(=O)[C@H](C(C)C)NC(=O)[C@H](CC(=O)O)NC(=O)[C@@H](NC(=O)CCCCCNC(=O)CCCC[C@@H]2SC[C@@H]3NC(=O)N[C@@H]32)CSSC[C@@H](C(=O)O)NC(=O)[C@@H]2CCCN2C(=O)[C@H](CC(C)C)NC(=O)[C@H](CC(=O)O)NC(=O)[C@H](Cc2c[nH]c3ccccc23)NC(=O)[C@H](CCC(=O)O)NC1=O [Biotin-TM11(cyclic)] ({Biotin-Ahx}-CDVEWVDVSSLEWDLPC-OH; disulfide 1-17)
3 | 2 | CC(C)C[C@H](NC(=O)[C@H](CO)NC(=O)[C@H](CO)NC(=O)[C@@H](NC(=O)[C@H](CC(=O)O)NC(=O)[C@@H](NC(=O)[C@H](Cc1c[nH]c2ccccc12)NC(=O)[C@H](CCC(=O)O)NC(=O)[C@@H](NC(=O)[C@H](CC(=O)O)NC(=O)[C@H](CS)NC(=O)CCCCCNC(=O)CCCC[C@@H]1SC[C@@H]2NC(=O)N[C@@H]21)C(C)C)C(C)C)C(C)C)C(=O)N[C@@H](CCC(=O)O)C(=O)N[C@@H](Cc1c[nH]c2ccccc12)C(=O)N[C@@H](CC(=O)O)C(=O)N[C@@H](CC(C)C)C(=O)N1CCC[C@H]1C(=O)N[C@@H](CS)C(=O)O [Biotin-TM11] ({Biotin-Ahx}-CDVEWVDVSSLEWDLPC-OH)

test system: human P-selectin-IgG; test: Binding of [3H]-cholesterol labeled sulfatide liposomes to human P-selectin-IgG; settings: liposomes carrying 22% of sulfatides, 2 hours at 4° C.
Protocol: Liposomes were prepared by sonication from egg yolk phosphatidylcholine, cholesterol, and sulfatides, all dissolved in chloroform/methanol (1:1, v/v), at weight ratios of 4:0.8:1.33. A tracer amount of [^3H]-cholesterol (1.3×10^8 dpm) was added, and the mixture was dried under a stream of nitrogen. The resulting lipid layer was vortexed in PBS and subsequently sonicated, resulting in liposomes with mean particle diameters of 59-62 nm.
Fc-specific goat anti-human IgG in coating buffer (50 mM NaHCO3, pH 9.6) was incubated in a high binding 96 well plate. The next day, wells were washed with assay buffer (20 mM HEPES, 150 mM NaCl, 1 mM CaCl2, pH 7.4) and incubated with blocking buffer (3% BSA in assay buffer). After washing, wells were incubated with human P-selectin-IgG, washed, and subsequently incubated with the [^3H]-cholesterol labeled liposomes in the presence or absence of the compounds below and antibodies for 2 hours at 4° C. After removal of unbound liposomes, bound liposomes were collected and counted using a scintillation counter.

Row | Molecule | inhibition of the binding of sulfatides to P-selectin
4 | D V E W V D V S (DVEWVDVS) [A19] | significantly inhibited
5 | D V E W V D V A (DVEWVDVA) [A27] | significantly inhibited
6 | C D V E W V D V S C (CDVEWVDVSC) [A17] | significantly inhibited

Second part, the molecule after the results:

Row | inhibition of the binding of sulfatides to P-selectin | Molecule
7 | did not | DVEAVDVS [D V E A V D V S, reference compound]
8 | did not | EWVDV [core motif peptide]

test system: Human platelets; test: Inhibition of platelet aggregation; format: cell-based; settings: human platelets activated by ADV
Protocol: Human platelets were activated by ADV, and the extent of platelet aggregation was measured in the presence or absence of EWVDV (SEQ ID No: 19)-containing peptides.

Row | Molecule | aggregation reduced (second phase of platelet aggregation)
9 | D V E W V D V S (DVEWVDVS) [A19] | about 45%
10 | C D V E W V D V S C (CDVEWVDVSC) [A17] | ~25%

biological target: T2, chimeric human p-selectin; test: competition ELISA; coated chimeric human P-selectin, competitor 2.5 nM TM11-strepPO complex; column head 'Affinity'; settings: not given
Protocol: (§1) Linear compounds were tested in the presence of DTT to prevent aggregate formation. After washing 6 times with assay buffer, the wells were incubated with 100 μl TMB/H_2O_2 for 15 min at RT. The reaction was stopped with 1 M H_2SO_4 and the absorbance read at 450 nm. From the results, the affinity constants were calculated: […]

Row | IC50 [µM] | Molecule
11 | 19 | {Biotin-Ahx}-VGLDPRDWVDVSDYA [Biotin-SH31]
12 | 82 | {Biotin-Ahx}-CPEFVDVEGDPGALLAC (cysteine pairing not given here, Linear compounds were tested in the presence of DTT) [Biotin-TM1]
13 | 2 | {Biotin-Ahx}-CDVEWVDVSSLEWDLPC (disulfide 1-17) [Biotin-TM11(cyclic)]
14 | 12 | {Biotin-Ahx}-CPDWVDVFKLVEGVMLC (cysteine pairing not given here, Linear compounds were tested in the presence of DTT) [Biotin-TM16]
15 | 0.1 | {Biotin-Ahx}-CDVEWVDVSC (cysteine pairing not given here, Only TM11 is said to have been prepared in a cyclized form as well) [Biotin-A17]
16 | 49 | {Biotin-Ahx}-CGWVDVIASGDTATLAC (cysteine pairing not given here, Linear compounds were tested in the presence of DTT) [Biotin-TM2]

biological target: T2, chimeric human p-selectin; test: affinity to human P-selectin, prepared and tested as in example 1 (competition ELISA against TM11-strepPO complex); column head 'Affinity [µM]'; settings: not given
Protocol: as §1

Row | IC50 [µM] | Molecule
17 | 400000 | {Biotin-Ahx}-DVEAVDVS (Comparative compound)
18 | 13000 | {Biotin-Ahx}-DVEWVDAS (Comparative compound)
19 | 1400 | {Biotin-Ahx}-DVEWADVS (Comparative compound)
20 | 21000 | {Biotin-Ahx}-DVEWVAVS (Comparative compound)
21 | 13000 | {Biotin-Ahx}-EWVKVA (Comparative compound)
